From the supplement of paper PMC12042874 come the findings set out here.

± gives the uncertainty stated by the source.

The data set is described as follows: amyloid nucleation score (Sup35N fusion, yeast selection) (log enrichment); library NNK2; higher = more nucleation; inactive = no reads after selection. The procedure, abridged:
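Yeast lacking psi expressed peptides of 20 random codons fused to Sup35N, received 100 μM copper sulfate for 24 hours, and were then grown for 7 days at 30°C on medium lacking adenine and uracil. Illumina sequencing of input and output plasmid inserts provided the reads. Nucleation scores are DiMSum log enrichments of output over input, centred on the mode of non-aggregating sequences. Any sequence with under 100 input reads was excluded.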
Consider SRFLCVKTTVVALI, for which the amyloid nucleation score was 4.66 ± 0.047.

The substance SRFLDGSLLPKTNGLSQEMV returned an amyloid nucleation score of 0.122 ± 1.1.

SRFRA: the amyloid nucleation score amounted to 0.357 ± 0.27.

The substance SRGLSGNSSASLEKLNRL displayed an amyloid nucleation score of 0.072 ± 0.63.

As to SRHWLNDVIFLSHSTSGQHW, the amyloid nucleation score is 1.49 ± 0.18.

SRIFVRYTLAKLVDFSCPES gave an amyloid nucleation score of 0.61 ± 0.46.

For SRLCFWSVGFNKTQQVEPVR, the amyloid nucleation score is -1.33 ± 1.1.

The substance SRLMCNNVTSLLVFVFIGHK gave an amyloid nucleation score of -0.337 ± 0.74.

Regarding SRMFVFNVGVIEFWKLGGYN, the amyloid nucleation score is -0.716 ± 0.64.

For SRPTKYSKWILMPPCY, the amyloid nucleation score entry is “inactive”.

Consider SRRRLVPSLLTRIISGVRGR, for which the amyloid nucleation score was -0.877 ± 0.55.

Consider SRSLNWPSAGKLKSDYEFVV, for which the amyloid nucleation score was -0.675 ± 0.3.

As to SRSSG, the amyloid nucleation score is 5.17 ± 0.058.

Take SRSVFIRSLAVITVIWILT: the amyloid nucleation score worked out at 1.34 ± 0.13.

As to SRTWAARNFLFRWVSPANFT, the amyloid nucleation score turned out to be 0.119 ± 0.74.

In the case of SRVFRSRMDGPFQWSGMGEV, the amyloid nucleation score came out at 2.24 ± 0.076.

Substance SRVVGNRMYRSGLSRSSLLH yielded an amyloid nucleation score of -0.263 ± 0.65.

Regarding SRVWFVNPAPYPADTSELAK, the amyloid nucleation score stood at 0.509 ± 0.8.

In turn, SRWLSQSPDHSWGGQTYGMS showed an amyloid nucleation score of -0.023 ± 0.63.

Substance SSAFFSFNWADKWCMLMCLV returned an amyloid nucleation score of -1.41 ± 1.1.

In the case of SSCIFYFTIRTNQTYLGI, the amyloid nucleation score came out at 6.93 ± 0.06.

Turning to SSCRTSSWLALVWFGLGVSG, the amyloid nucleation score is 0.177 ± 0.19.

As for SSFCKPLKVRWLGVIVQLSV, the amyloid nucleation score is -0.872 ± 0.45.

Consider SSFGGGCSVCRMWGGFLLDG, for which the amyloid nucleation score is 4.4 ± 0.059.

As for SSFLDRAIGGEAGRCSVWMK, the amyloid nucleation score was 0.856 ± 0.24.

In turn, SSFYTSGYPQNVSARGLGAE had an amyloid nucleation score of 0.627 ± 0.56.

On to SSGCS, for which the amyloid nucleation score is -0.021 ± 0.5.

Take SSGFPE: the amyloid nucleation score is -0.846 ± 0.42.

In the case of SSGLTRFKYRRLRSIVFELG, the amyloid nucleation score result is “inactive”.

The substance SSIINMTDAVGWFLELKNGE had an amyloid nucleation score of 0.177 ± 0.37.

In turn, SSIVSSPVCPLCGWGWF displayed an amyloid nucleation score of 5.55 ± 0.069.

With SSLCGNCLGVEVVEQVISCR, the amyloid nucleation score was -0.12 ± 0.23.

SSLGSSGAEKSRIGYIVIER displayed an amyloid nucleation score of 0.261 ± 0.77.

SSMDFVHCSWAVWHLGSFLC showed an amyloid nucleation score of -1.01 ± 0.78.

With SSNVK, the amyloid nucleation score is 0.685 ± 0.4.

As to SSPGSCIMSENWVNSSWRFT, the amyloid nucleation score result is “inactive”.

With SSRVDLLLLVETAFARSRIW, the amyloid nucleation score turned out to be 3.31 ± 0.08.

On to SSRVDVVISHQREAIGSRQC, for which the amyloid nucleation score amounted to 5.11 ± 0.077.

SSSEFDPSSGSCLYT showed an amyloid nucleation score of -0.847 ± 0.34.

Consider SSSVSRPRCFFRSWFYIHVR, for which the amyloid nucleation score was -1.21 ± 0.49.

In the case of SSVHPPEPRINFFSSDGCIA, the amyloid nucleation score result was “inactive”.

SSVIHYRT registered an amyloid nucleation score of 0.038 ± 0.8.

Consider SSWAGVMYIVHNTKVHSYTI, for which the amyloid nucleation score turned out to be 3.19 ± 0.064.

On to SSWVFITFSYVMRSQVYHLK, for which the amyloid nucleation score was -1.12 ± 0.49.

The substance SSYGWSGTC displayed an amyloid nucleation score of -0.833 ± 0.63.

SSYRRLTQSTLRVDRHRLFY: the amyloid nucleation score was determined as 0.732 ± 0.4.

For STALAFYP, the amyloid nucleation score entry is “inactive”.

In the case of STCFLTFVY, the amyloid nucleation score entry was “inactive”.

In the case of STDYMGPAY, the amyloid nucleation score is -0.617 ± 0.37.

The substance STESARSKRGMSSPMNSIRA returned an amyloid nucleation score of 0.029 ± 0.32.

The substance STMSFFSIGKLPEIVVGDSY had an amyloid nucleation score of -1.24 ± 0.75.

Take STNYQLSLFR: the amyloid nucleation score was determined as 3.96 ± 0.086.

For STPIHDIFTPTLDRV, the amyloid nucleation score is -0.08 ± 0.5.

Regarding STQRIEDIEIVEQKCPACIG, the amyloid nucleation score was determined as 0.754 ± 0.3.

For STSFIL, the amyloid nucleation score was -0.718 ± 0.76.

In the case of STSLVTIPCGGFGFKYSANP, the amyloid nucleation score stood at 0.171 ± 0.33.

In the case of STSQWYRVLVRVVCSPM, the amyloid nucleation score is 0.331 ± 0.4.

Consider STSSNGSEYHCLSI, for which the amyloid nucleation score was determined as 1.05 ± 0.44.

STSSSLAR gave an amyloid nucleation score of 0.867 ± 0.22.

STTLSEIMIYAVTGG came in with an amyloid nucleation score of -0.45 ± 0.31.

On to STTWNSLELTTDNAAGAAII, for which the amyloid nucleation score worked out at 2.95 ± 0.09.

STVKVLVPEVHWSKATPRNY came in with an amyloid nucleation score of 2.99 ± 0.14.

In the case of STVTELLRYPAHNFGEVHIL, the amyloid nucleation score was found to be 4.702 ± 0.047.

On to STWDGWGFSWISFL, for which the amyloid nucleation score is -0.635 ± 1.

The substance STYSPSSPHMLSYPFWARTP registered an amyloid nucleation score of -0.269 ± 0.76.

The substance SVCSKSGNFYGVVNMGL had an amyloid nucleation score of -0.161 ± 0.79.

As for SVFCCLYLYSG, the amyloid nucleation score is 9.035 ± 0.023.

SVFLSNLFSYRSADNYGMAR: the amyloid nucleation score result was “inactive”.

Substance SVFVNCNHWYIYSPWPSKRN had an amyloid nucleation score of 8.715 ± 0.047.

For the substance SVGQMQLT, the amyloid nucleation score came to 0.707 ± 0.35.

SVIISVVD came in with an amyloid nucleation score of -0.851 ± 0.35.

As to SVIRSCVNIDSLVKVEWGAS, the amyloid nucleation score came out at 6.717 ± 0.052.

Regarding SVKRHPFRTVKLGVSVLLWV, the amyloid nucleation score is 1 ± 0.18.

As to SVLAAP, the amyloid nucleation score entry was “inactive”.

In the case of SVLKYS, the amyloid nucleation score is -0.334 ± 0.63.

Substance SVLMDYNSKWWDRMSSFIRP registered an amyloid nucleation score of -0.272 ± 0.48.

For SVQKIEIMYYRRKTGVYEFE, the amyloid nucleation score came out at 3.4 ± 0.055.

On to SVYLGCRCHVMFVRLTVAFV, for which the amyloid nucleation score result is “inactive”.

For the substance SVYNWYIIPANCEQDLCM, the amyloid nucleation score was determined as 5.54 ± 0.095.

SVYQVRLLFGDLRANKAVVS came in with an amyloid nucleation score of -0.494 ± 0.56.

As to SWAQRCDGGMYMRDCWLMGS, the amyloid nucleation score is 0.361 ± 0.33.

As to SWFSSNFFFY, the amyloid nucleation score is 5.27 ± 0.058.

Regarding SWFVRLGTRNWYTLRRVVIG, the amyloid nucleation score was -0.315 ± 0.29.

On to SWGTRV, for which the amyloid nucleation score result was “inactive”.

Consider SWGYNRF, for which the amyloid nucleation score result was “inactive”.

As for SWKGHIISSAHQQLESPSLW, the amyloid nucleation score stood at 0.345 ± 0.23.

SWKWYRS returned an amyloid nucleation score of 0.157 ± 1.

As for SWMIYLCRVGTITRMQDWLW, the amyloid nucleation score is -0.445 ± 0.35.

In turn, SWNKGIHGGSTANCWFIVIK returned an amyloid nucleation score of 0.029 ± 0.61.

Turning to SWPVRFQLNATGSPVGRLWT, the amyloid nucleation score is -0.334 ± 0.76.

SWWTMWLLTRLRNSSSWGMT: the amyloid nucleation score came to 0.011 ± 0.23.

The substance SYCILVLNL yielded an amyloid nucleation score of 6.445 ± 0.045.

Regarding SYCTR, the amyloid nucleation score was -0.645 ± 0.56.

In turn, SYCVWCLYTSLLTLGQSASI returned an amyloid nucleation score of 0.163 ± 0.33.

As to SYECPMHTLPVHSRSAYRST, the amyloid nucleation score was determined as 0.878 ± 0.27.

In the case of SYFLYLGLNPVYQWYDSFVV, the amyloid nucleation score is 1.47 ± 0.14.

In the case of SYGFFMVWIEGYFLVMASRI, the amyloid nucleation score result was “inactive”.

As to SYHRS, the amyloid nucleation score came out at 0.086 ± 0.24.

For SYIGFVSIGSNMNRCSFDKF, the amyloid nucleation score was -0.116 ± 0.29.

In turn, SYIWSECRTNMIVWASNTLK showed an amyloid nucleation score of 3.81 ± 0.063.

Consider SYMDE, for which the amyloid nucleation score stood at 4.33 ± 0.06.

As for SYRSRVQYLCGNSMCLHAPI, the amyloid nucleation score is 5.15 ± 0.098.

In turn, SYSQGD had an amyloid nucleation score of 0.674 ± 0.53.

On to SYTGS, for which the amyloid nucleation score is -0.019 ± 0.34.

SYTMVTLPSPSL registered an amyloid nucleation score of -0.224 ± 0.23.

As to SYVVVAPLCQCTTVSGRRGI, the amyloid nucleation score was determined as 1.04 ± 0.59.

For SYYELGNDLSACYFYCHRVA, the amyloid nucleation score was -0.253 ± 0.79.

Take SYYFGPHWRVYTAFARFRI: the amyloid nucleation score entry was “inactive”.

Substance TAIYENYCMSVMWMLVVGRI came in with an amyloid nucleation score of -0.277 ± 0.3.

The substance TASIDKRVTGSSREWWRSRQ displayed an amyloid nucleation score of 0.357 ± 0.66.

Substance TASSLCIQVGYVIFLY came in with an amyloid nucleation score of 8.072 ± 0.032.

TCARFVGMEM displayed an amyloid nucleation score of 1.22 ± 0.27.

The substance TCFTSCSG gave an amyloid nucleation score of 0.263 ± 0.37.

Substance TCLAKLLFCKSTSKDRV yielded an amyloid nucleation score of 0.063 ± 1.1.

As to TCRLRFGCEYGQTFSCVSWA, the amyloid nucleation score turned out to be 0.531 ± 0.64.

TCSCSLVFYMILARG displayed an amyloid nucleation score of -0.053 ± 0.63.

TCSGLCYIHWACIIGKDNYM yielded an amyloid nucleation score of 4.9 ± 0.087.

For the substance TCVQLKNAIFQVSWYILLQG, the amyloid nucleation score is -0.322 ± 0.65.

The substance TCYLGPWCPIHDTRIRPGWV had an amyloid nucleation score of 0.698 ± 0.21.

Regarding TDCFQFS, the amyloid nucleation score was 0.713 ± 0.58.

For the substance TDGDRFSCRVKWNRHEDQRT, the amyloid nucleation score amounted to 0.463 ± 0.24.

The substance TDIRTSGDERWAFDSMRTGD had an amyloid nucleation score of 0.701 ± 0.37.

As to TDLIPRQKKITLWFIS, the amyloid nucleation score was 0.159 ± 0.53.

TDLNHACCSNPLSF came in with an amyloid nucleation score of -0.468 ± 0.61.

TDLVDPGGTKHRKDS came in with an amyloid nucleation score of 0.523 ± 0.53.

Regarding TDVTYRNVVVSSRKFSGNRN, the amyloid nucleation score is 8.149 ± 0.073.

With TEQICGNMWSLYESFNFINS, the amyloid nucleation score is -0.474 ± 1.1.

The substance TESVPSWNGMKNMYEDNQLK displayed an amyloid nucleation score of 1.54 ± 0.55.

Turning to TFAPDLS, the amyloid nucleation score is -0.053 ± 0.56.

Turning to TFAVENHFFMEVLRRKVLIG, the amyloid nucleation score result was “inactive”.

Consider TFCVRQLYLSML, for which the amyloid nucleation score is 0.833 ± 0.2.

On to TFDFDNVAVYYALSGTGDSW, for which the amyloid nucleation score is -0.516 ± 0.34.

In turn, TFDLSWLVHVPDNCCHLLCF yielded an amyloid nucleation score of -0.183 ± 0.28.

As to TFFDGSCLVRLSWAQLEFLT, the amyloid nucleation score is -0.471 ± 0.41.

The substance TFFYYYCMCSRTL registered an amyloid nucleation score of 7.83 ± 0.061.

In the case of TFGYCISLMTLTFVH, the amyloid nucleation score is -0.239 ± 0.28.

With TFHRS, the amyloid nucleation score came to 1.05 ± 0.29.

For the substance TFIHN, the amyloid nucleation score is -0.161 ± 0.19.

Consider TFNKLYYSSVACLCRLGHSR, for which the amyloid nucleation score worked out at 9.32 ± 0.055.

TFRIERSVGWYCNRASYSCK gave an amyloid nucleation score of 1.02 ± 0.21.

On to TFRYFGDWNLQRGML, for which the amyloid nucleation score was determined as 0.85 ± 0.52.
